Data from article PMC5758809.
Residue numbers refer to the chain shown, from its start. In names and notes the source's numbering stands. Values belong to the binder of their own block, whether it stands above or below them.

Experiments:
native PP1 (rabbit) = native PP1 (rabbit) (UniProt P62139)
recombinant PP1 = recombinant PP1 (UniProt P62139)

Chain of UniProt P62139 (P62139 whole entry): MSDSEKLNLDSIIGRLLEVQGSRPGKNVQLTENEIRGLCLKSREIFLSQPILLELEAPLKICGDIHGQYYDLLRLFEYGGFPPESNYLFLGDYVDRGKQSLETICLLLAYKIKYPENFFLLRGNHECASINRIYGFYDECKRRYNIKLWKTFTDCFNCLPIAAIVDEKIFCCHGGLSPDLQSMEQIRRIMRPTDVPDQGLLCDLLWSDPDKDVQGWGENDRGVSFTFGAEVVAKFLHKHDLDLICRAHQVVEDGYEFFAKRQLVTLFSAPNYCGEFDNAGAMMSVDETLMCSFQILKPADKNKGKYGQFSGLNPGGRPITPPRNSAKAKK

IC50 for inhibition of native PP1 phosphatase activity ([32P]phosphorylase a as substrate) (native PP1 (rabbit)): 19 nM
IC50 for inhibition of recombinant PP1 phosphatase activity ([32P]phosphorylase a as substrate) (recombinant PP1): 980 nM
B1: PKA-thiophosphorylated form of inhibitor-1 (natural protein)
chain: MEQDNSPRKIQFTVPLLEPHLDPEAAEQIRRRRPTPATLVLTSDQSSPEIDEDRIPNPHLKSTLAMSPRQRKKMTRITPTMKELQMMVEHHLGQQQQGEEPEGAAESTGTQESRPPGIPDTEVESRLGTSGTAKKTAECIPKTHERGSKEPSTKEPSTHIPPLDSKGANSV
modifications: thiophosphorylated Thr35

IC50 for inhibition of native PP1 phosphatase activity ([32P]phosphorylase a as substrate) (native PP1 (rabbit)): 240 nM
IC50 for inhibition of recombinant PP1 phosphatase activity ([32P]phosphorylase a as substrate) (recombinant PP1): 553 nM
B2: PKA-thiophosphorylated form of inhibitor-1[I10A;F12A] (natural protein)
chain: B1 chain with I10A, F12A
modifications: thiophosphorylated Thr35
